In patent US20080286284A1:
“And” between values parts separate entries of the source, which are not always exact repeats. Identical values can stand only once. Blank lines part the entries; values can stand above or below the substance they belong to.

Tests used:
[1] = target: prostate specific membrane antigen (PSMA), full-length human (human) (UniProt Q04609); test: average over PSMA-expressing cells
[2] = target: prostate specific membrane antigen (PSMA), full-length human (human) (UniProt Q04609); test: fraction of radiolabeled mAb bound, PSMA-3T3 cells
[3] = target: prostate specific membrane antigen (PSMA), full-length human (human) (UniProt Q04609); test: cell-based or functional assay
[4] = target: recombinant soluble PSMA (rsPSMA) (human) (UniProt Q04609); test: Biacore, rsPSMA
Sequence of recombinant soluble PSMA (rsPSMA) (human) (Q04609 44-750): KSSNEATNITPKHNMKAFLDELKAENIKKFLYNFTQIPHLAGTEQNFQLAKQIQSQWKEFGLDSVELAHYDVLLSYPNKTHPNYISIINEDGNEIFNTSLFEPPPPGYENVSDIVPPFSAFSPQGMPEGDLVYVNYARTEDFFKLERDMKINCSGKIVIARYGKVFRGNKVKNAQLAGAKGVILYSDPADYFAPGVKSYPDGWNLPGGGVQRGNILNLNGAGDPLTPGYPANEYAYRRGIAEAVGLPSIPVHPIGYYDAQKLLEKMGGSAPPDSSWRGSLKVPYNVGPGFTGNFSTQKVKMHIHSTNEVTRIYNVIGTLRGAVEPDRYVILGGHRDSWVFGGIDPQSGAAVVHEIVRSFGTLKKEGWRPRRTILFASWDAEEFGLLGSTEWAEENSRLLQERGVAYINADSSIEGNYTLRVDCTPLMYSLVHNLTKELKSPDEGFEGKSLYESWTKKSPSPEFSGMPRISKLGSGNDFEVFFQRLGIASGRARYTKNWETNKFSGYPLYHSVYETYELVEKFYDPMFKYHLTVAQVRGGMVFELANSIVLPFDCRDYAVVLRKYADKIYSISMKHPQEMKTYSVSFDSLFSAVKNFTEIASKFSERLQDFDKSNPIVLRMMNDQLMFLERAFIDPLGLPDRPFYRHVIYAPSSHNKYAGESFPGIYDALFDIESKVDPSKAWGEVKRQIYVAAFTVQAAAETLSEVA

Sequence of prostate specific membrane antigen (PSMA), full-length human (human) (Q04609 whole entry): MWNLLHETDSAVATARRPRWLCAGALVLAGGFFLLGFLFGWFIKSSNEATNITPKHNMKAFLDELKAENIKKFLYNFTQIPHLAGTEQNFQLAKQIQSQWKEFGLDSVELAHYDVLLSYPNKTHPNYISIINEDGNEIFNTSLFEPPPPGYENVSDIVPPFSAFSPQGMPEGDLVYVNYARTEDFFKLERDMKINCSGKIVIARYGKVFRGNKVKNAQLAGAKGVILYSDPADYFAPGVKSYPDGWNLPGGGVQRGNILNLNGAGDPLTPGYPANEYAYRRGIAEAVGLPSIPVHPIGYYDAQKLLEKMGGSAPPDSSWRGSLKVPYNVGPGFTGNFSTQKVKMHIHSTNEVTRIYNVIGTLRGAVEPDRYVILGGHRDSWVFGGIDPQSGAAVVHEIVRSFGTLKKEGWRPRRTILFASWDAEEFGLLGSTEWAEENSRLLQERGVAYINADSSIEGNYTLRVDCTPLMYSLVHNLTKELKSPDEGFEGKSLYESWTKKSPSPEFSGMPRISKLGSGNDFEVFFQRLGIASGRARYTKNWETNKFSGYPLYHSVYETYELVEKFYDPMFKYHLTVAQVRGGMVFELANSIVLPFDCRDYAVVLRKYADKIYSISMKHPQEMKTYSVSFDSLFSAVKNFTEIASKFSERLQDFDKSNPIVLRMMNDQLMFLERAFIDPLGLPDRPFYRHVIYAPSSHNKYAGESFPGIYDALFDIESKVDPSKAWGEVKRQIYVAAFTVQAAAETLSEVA

Immunoreactivity (%) [1]: 56.7%
Immunoreactivity (%) [2]: 58.5% and 54.9%
Substance: ^111In radiolabeled CHX-A″-DTPA mJ591 (antibody)

Substance: mAb J591 (murine) (antibody)
LD50, immunotoxin cytotoxicity (Mab-Zap saporin secondary) on C4-2 cells [3]: 88.2 pM
LD50, immunotoxin cytotoxicity (Mab-Zap saporin secondary) on PSMA-3T3 cells [3]: 89 pM

Kd [4]: 0.634 nM
Substance: Control (Table 6, Biacore) (antibody)
